# Measured values: US20050074865A1
# B1: MMP7 (enzyme, UniProt P09237 95-267, looked up, species assumed)
# Matrilysin: YSLFPNSPKWTSKVVTYRIVSYTRDLPHITVDRLVSKALNMWGKEIPLHFRKVVWGTADIMIGFARGAHGDSYPFDGPGNTLAHAFAPGTGLGGDAHFDEDERWTDGSSLGINFLYAATHELGHSLGMGHSSDPNAVMYPTYGNGDPQNFKLSQDDIKGIQKLYGKRSNSRKK
# Target: recombinant human TNFα (RDI) (human) (UniProt P01375)
# Assay: cell-based or functional assay
# Chain of recombinant human TNFα (RDI) (human) (P01375 77-233 limits assumed): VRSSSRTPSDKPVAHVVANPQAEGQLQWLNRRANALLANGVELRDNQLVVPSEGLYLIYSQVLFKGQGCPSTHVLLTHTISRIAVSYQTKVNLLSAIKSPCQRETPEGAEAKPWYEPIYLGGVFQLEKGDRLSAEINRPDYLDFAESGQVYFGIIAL
binder,measurement,value
B1,L929 cell survival at the dilution equivalent to ~600 pg/ml TNFα (reference standard: 10% survival),40 % survival
same,"log reduction in TNFα activity at the 50% survival level, L929 cytotoxicity bioassay after overnight digestion",1.22 log
